Target: human S100A9 protein (human) (UniProt P06702)
Assay: other fluorescence titration; intrinsic tryptophan fluorescence of 2 uM S100A9; S100A12 added at 0.4-7 uM; excitation 295 nm, emission read at 345 nm; one binding site model

B1: human S100A12 protein (natural protein)
chain: MTKLEEHLEGIVNIFHQYSVRKGHFDTLSKGELKQLLTKELANTIKNIKDKAVIDEIFQGLDANQDEQVDFQEFISLVAIALKAAHYHTHKE
**Q.** For B1, which Kd is on record?
**A.** 1300 nM
